# From article PMC3458112, “The VP3 Factor from Viruses of Birnaviridae Family Suppresses RNA Silencing by Binding Both Long and Small RNA Duplexes” (PLoS ONE, 2012)
# B1: 6xHis-tagged full-length IBDV VP3 (wild type) (natural protein)
# chain: ASEFKETPELESAVRAMEAAANVDPLFQSALSVFMWLEENGIVTDMANFALSDPNAHRMRNFLANAPQAGSKSQRAKYGTAGYGVEARGPTPEEAQREKDTRISKKMETMGIYFATPEWVALNGHRGPSPGQVKYWQNKREIPDPNEDYLDYVHAEKSRLASEEQILRAATSIYGAPGQAEPPQAFIDEVAKVYEINHGRGPNQEQMKDLLLTAMEMKHRNPRRALPKPKPKPNAPTQRPPGRLGRWIRTVSDEDLE
# notes: VP3 of Infectious bursal disease virus (IBDV), the cut product of the viral polyprotein (pVP2-VP4-VP3); numbers count on: the VP3 polypeptide itself (C-terminal region printed as 222-258), not the polyprotein; also called VP3 WT; wild type IBDV VP3
# Experiments:
# Test in all cases: SEC; analytical gel filtration of affinity-purified 6xHis-tagged VP3s, Superdex-200 5/150 calibrated with catalase, serum albumin, ovoalbumine and chymotrypsinogen A; 20 mM Tris-HCl pH 7.5, 150 mM NaCl, 4°C, 0.5 ml/min
# [1] = target: 6xHis-tagged IBDV VP3 Patch2 mutant (R159D, R168D, H198D, R200D) (Infectious bursal disease virus (IBDV))
# [2] = target: 6xHis-tagged IBDV VP3 Patch1 mutant (K99D, R102D, K105D, K106D) (Infectious bursal disease virus (IBDV))
# [3] = target: the molecule itself
molecule,measurement,setting,value
"6xHis-tagged IBDV VP3 Patch2 mutant (R159D, R168D, H198D, R200D) (natural protein)",stoichiometry N,[1],2
"6xHis-tagged IBDV VP3 Patch1 mutant (K99D, R102D, K105D, K106D) (natural protein)",stoichiometry N,[2],2
B1,stoichiometry N,[3],2
